“And” between values parts separate entries of the source, which are not always exact repeats. Identical values can stand only once.
B1: Chitosanase, P33665 (parent)
chain: MHSQHRTARIALAVVLTAIPASLATAGVGYASTQASTAVKAGAGLDDPHKKEIAMELVSSAENSSLDWKAQYKYIEDIGDGRGYTGGIIGFCSGTGDMLELVQHYTDLEPGNILAKYLPALKKVNGSASHSGLGTPFTKDWATAAKDTVFQQAQNDERDRVYFDPAVSQAKADGLRALGQFAYYDAIVMHGPGNDPTSFGGIRKTAMKKARTPAQGGDETTYLNAFLDARKAAMLTEAAHDDTSRVDTEQRVFLKAGNLDLNPPLKWKTYGDPYVINS

Variants of: B1
Conditions: Streptomyces sp. (strain N174), pH 4.5, Thermal, Fluorescence, reversible: No, structure 1CHK, whole UniProt chain shown

| Variant | Tm (Sodium acetate 50 mM) [°C] | change of melting temperature, mutant - wild type (higher = more stable) (Sodium acetate 50 mM) [°C] | change of melting temperature, mutant - wild type (higher = more stable) (Sodium acetate 100 mM) |
| --- | --- | --- | --- |
| A144L | 48 | -5.5 | -5.3 °C and -6.2 °C and -7 °C |
| K204R |  |  | -1 °C and -0.2 °C and -0.9 °C |
